In PMC10433963 (2023):

Target: ^H7-SUMOClpC1^FLAG (recombinant ClpC1) (M. smegmatis, UniProt A0R574 1-848)
Assay: MST; 1 mM ATPγS; Kapp from Hill fit

Sequence of ^H7-SUMOClpC1^FLAG (recombinant ClpC1) (A0R574 whole entry): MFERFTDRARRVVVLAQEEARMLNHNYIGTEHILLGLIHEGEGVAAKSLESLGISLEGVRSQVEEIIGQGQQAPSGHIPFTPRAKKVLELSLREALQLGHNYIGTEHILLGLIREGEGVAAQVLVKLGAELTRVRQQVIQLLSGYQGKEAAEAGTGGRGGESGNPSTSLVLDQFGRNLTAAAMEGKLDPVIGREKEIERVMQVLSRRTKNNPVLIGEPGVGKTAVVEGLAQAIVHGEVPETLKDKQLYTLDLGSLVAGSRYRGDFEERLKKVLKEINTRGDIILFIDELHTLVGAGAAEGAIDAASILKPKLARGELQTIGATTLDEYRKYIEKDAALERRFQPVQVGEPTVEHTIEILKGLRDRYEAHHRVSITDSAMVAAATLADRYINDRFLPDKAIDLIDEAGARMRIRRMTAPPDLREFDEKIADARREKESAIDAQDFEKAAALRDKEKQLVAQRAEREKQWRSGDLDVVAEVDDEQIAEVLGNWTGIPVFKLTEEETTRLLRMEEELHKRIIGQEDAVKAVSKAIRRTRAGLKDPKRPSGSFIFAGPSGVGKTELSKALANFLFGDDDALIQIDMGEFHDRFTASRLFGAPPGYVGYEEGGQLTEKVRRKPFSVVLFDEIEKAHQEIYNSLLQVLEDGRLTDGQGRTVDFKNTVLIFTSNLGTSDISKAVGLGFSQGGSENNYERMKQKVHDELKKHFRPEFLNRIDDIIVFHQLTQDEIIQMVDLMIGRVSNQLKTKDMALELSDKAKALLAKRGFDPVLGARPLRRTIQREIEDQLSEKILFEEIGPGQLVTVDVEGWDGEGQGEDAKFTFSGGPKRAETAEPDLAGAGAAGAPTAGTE

B1: Magnesium chelatase (recombinant) (natural protein)
chain: MVSQPKDLPRTVGELRASGHRERGVKAEIRENLLAALAERRDVWPGILGFEDTVIPQLERALIAGHDVVLLGERGQGKTRLLRALTGLLDEWTPVIAGSELGEHPYSPITPESIRRAADSGDDLPVEWRHRSERYTEKLATPDTSVADLVGDIDPIKVAEGRSLGDPETIAYGLIPRAHRGIVAVNELPDLAERIQVAMLNVMEERDIQVRGYTLRLPLDVLVVASANPEDYTNRGRIITPLKDRFGAEIRTHYPLELEAEVGVIRQEAELAAEVPEYLLAVLARFARNLRESNSIDQRSGVSARFAIAAAETVAASARHRAAILGEDDPVARVVDLGTVIDVLRGKLEFETGEEGREQAVLEHLLRRATADTAQRLLGGIDVGPLVAAIEEGSPVTTGERVSAKDVVAALPDLPAIDAIAHRLNAVSVGQRAAAIELALEALYLAKRIDKVSGEGETVYG
Kd: 6.7 µM

B2: XRE (recombinant) (natural protein)
chain: MAQDENLAAVVSNAAQDIGSFIRAQREAAQVSVRQLAEKAGVSNPYLSQIERGLRKPSADVLNQIAKALRVSAEVLYVRAGILEPSEPSEVRDAIVNDVSITERQKQVLLDIYTSFRQQNEAAGEPEGAAVIPSPDEEPATD
Kd: 4.6 µM

B3: GntR (recombinant) (natural protein)
chain: MSPTPDPQSAVPAREIAYRIVYDAIASGRYLPGQWIREDEVTAEAGVSRTPLREALQRLQSEGLVQLVRHRGALVVGWTSADLDDLFDIRVALETYGARRAAQRRGGAQLESLQKLCASMDEILPAAQEPELQQLGHLCIDFHRGIHEAADNRKLLSVMPMVLAPPFVSEAFHHHTRLELEQAFAHHRELVEAIAIGDEDWAEGVMRAHLRHGRRSLRRMERHLPLMTSHDAEPAVTDTGQPETTSSDPVHE
Kd: 3.3 µM

B4: DnaJ1 (recombinant) (natural protein)
chain: MAQREWVEKDFYKELGVSSDASADEIKKAYRKLAAELHPDRNSDPGAAERFKAVSEANSVLSDPAKRKEYDETRRLFAGGFGRRFNQGGGGFGGGFGSDGVEFNLGDLFDAAGQTGGANIGDLFGGLFGRGPQQRPSRPRRGNDLETETELSFLEATKGVAMPLRLTSPAPCTNCHGSGARPGTSPKVCPSCNGSGVISRNQGAFGFSEPCTECRGSGSIIEHPCQECRGTGVTTRTRTINVRIPPGVEDGQRIRLAGQGEAGLRGAPSGDLYVTVHVRPDKVFGRDGDDLTVTVPVSFHELALGTTLSVPTLDGKVGVRVPKGTSDGRILRVRGRGVPKRSGGHGDLLVTVKVAVPPNLEGEAAEALEAYAKAERASGFDPRAGWAGNV
Kd: 6.4 µM
